Assays:
[1] = target: PE-conjugated HLA-A*02:01/MART1 26-35 heteroclitic multimer (Proimmune) (human); test: structural avidity: flow cytometry, graded A2/MART1 multimer on Jurkat76/CD8αβ transfectants
[2] = target: PE-conjugated HLA-A*02:01/MART1 26-35 heteroclitic multimer (Proimmune) (human); test: structural avidity: flow cytometry, graded A2/MART1 multimer on Jurkat76 transfectants without CD8
[3] = target: HLA-A*02:01 presenting MART1 27-35 peptide (…) on peptide-pulsed T2 cells (human); test: cell-based or functional assay
[4] = target: MART1 peptide on HLA-A*02:01 (human); test: staining with graded concentrations of A2/MART1 multimer; Jurkat76/CD8αβ transfectants; full-length, on cells
[5] = target: MART1 peptide on HLA-A*02:01 (human); test: IL-2 ELISPOT; Jurkat76 transfectants without CD8; T2 cells pulsed with graded concentrations of MART1 27-35 peptide; full-length, on cells
[6] = target: MART1 peptide on HLA-A*02:01 (human); test: staining with graded concentrations of A2/MART1 multimer; Jurkat76 transfectants without CD8; full-length, on cells
[7] = target: MART1 peptide on HLA-A*02:01 (human); test: IL-2 ELISPOT; Jurkat76/CD8αβ transfectants; T2 cells pulsed with graded concentrations of MART1 27-35 peptide; full-length, on cells
[8] = target: MART1 peptide on HLA-A*02:01 (human); test: staining with graded concentrations of A2/MART1 multimer; Jurkat76 transfectants without CD8; full-length, on cells; conditions: heteroclitic peptide, residues not given
[9] = target: MART1 peptide on HLA-A*02:01 (human); test: staining with graded concentrations of A2/MART1 multimer; Jurkat76/CD8αβ transfectants; full-length, on cells; conditions: heteroclitic peptide, residues not given
[10] = target: T1, WT1 peptide on HLA-A*24:02 (human, heteroclitic peptide as printed; the natural WT1 235-243 residues are not given); test: cytokine release
T1 peptide: CYTWNQMNL

[11] = chains Valpha:beta TRBV27 TRBJ1-2 CDR3
[12] = chains Valpha:beta TRBV27 TRBJ2-7 CDR3

For A2/MART1-specific TCR, clone DMF5, the EC50 [1] was 0.02 µg/mL, the EC50 [2] was 0.03 µg/mL and the Functional avidity w/CD8 EC50 (IL-2 ELISPOT, peptide-pulsed T2 cells) [3] was 0.33 µM. The Functional avidity w/o CD8 EC50 (IL-2 ELISPOT, peptide-pulsed T2 cells) [3] was 1.4 µM, the Functional avidity with CD8 EC50 (IL-2 ELISPOT, peptide-pulsed T2 cells) [3] was 0.102 µg/mL and the Functional avidity without CD8 EC50 (IL-2 ELISPOT, peptide-pulsed T2 cells) [3] was 0.363 µg/mL.

For DMF5 TCR, the EC50 of multimer (structural avidity) [4] was 0.02 µg/mL, the EC50 of peptide [5] was 1400 nM and the EC50 of multimer (structural avidity) [6] was 0.03 µg/mL. It also gave an EC50 of peptide [7] of 330 nM.

B1: Clone 1086 (SIG35α with clone 1086 TCRβ) (protein)
chain 1: QKEVEQNSGPLSVPEGAIASLNCTYSDRGSQSFFWYRQYSGKSPELIMFIYSNGDKEDGRFTAQLNKASQYVSLLIRDSQPSDSATYLCAVSIGFGNVLHCGSGTQVIVLP
chain 2: CASSLHGPGGYTF
Work on B1 yielded an EC50 of multimer (structural avidity) [8, 11] of 0.04 µg/mL and an EC50 of multimer (structural avidity) [9, 11] of 0.01 µg/mL.

B2: Clone 788 (SIG35α with clone 788 TCRβ) (protein)
chain 1: QKEVEQNSGPLSVPEGAIASLNCTYSDRGSQSFFWYRQYSGKSPELIMFIYSNGDKEDGRFTAQLNKASQYVSLLIRDSQPSDSATYLCAVSIGFGNVLHCGSGTQVIVLP
chain 2: CASGPSYEQYF
In the case of B2, the EC50 of multimer (structural avidity) [8, 12] is reported as 0.05 µg/mL and the EC50 of multimer (structural avidity) [9, 12] is reported as 0.01 µg/mL.

B3: Clone 523 (SIG35α with clone 523 TCRβ) (protein)
chain 1: QKEVEQNSGPLSVPEGAIASLNCTYSDRGSQSFFWYRQYSGKSPELIMFIYSNGDKEDGRFTAQLNKASQYVSLLIRDSQPSDSATYLCAVSIGFGNVLHCGSGTQVIVLP
chain 2: CASGSYEQYF
Work on B3 yielded an EC50 of multimer (structural avidity) [9, 12] of 0.3 µg/mL.

B4: Clone T53 (T53 TCRα with TAK1β) (TCR, V domains shown)
Valpha: EDKVVQSPLSLVVHEGDTVTLNCSYEVTNFRSLLWYKQEKKAPTFLFMLTSSGIEKKSGRLSSILDKKELFSILNITATQTGDSAVYLCAVITGGTSYGKLTFGQGTILTVHP
Vbeta: LAGVTQTPRYLIKTRGQQVTLSCSPISGHRSVSWYQQTPGQGLQFLFEYFSETQRNKGNFPGRFSGRQFSNSRSEMNVSTLELGDSALYLCASSLGWRETYNEQFFGPGTRLTVL
B4: recognises [10].

B5: Clone A262 (A262 TCRα with TAK1β) (TCR, V domains shown)
Valpha: EDKVVQSPLSLVVHEGDTVTLNCSYEVTNFRSLLWYKQEKKAPTFLFMLTSSGIEKKSGRLSSILDKKELFSILNITATQTGDSATYLCAVQNAGGTSYGKLTFGQGTILTVHP
Vbeta: LAGVTQTPRYLIKTRGQQVTLSCSPISGHRSVSWYQQTPGQGLQFLFEYFSETQRNKGNFPGRFSGRQFSNSRSEMNVSTLELGDSALYLCASSLGWRETYNEQFFGPGTRLTVL
B5: recognises [10].

B6: Clone T262 (T262 TCRα with TAK1β) (TCR, V domains shown)
Valpha: EDQVTQSPEALRLQEGESSSLNCSYTVSGLRGLFWYRQDPGKGPEFLFTLYSAGEEKEKERLKATLTKKESFLHITAPKPEDSATYLCAVQALRNNAGNNRKLIWGLGTSLAVNP
Vbeta: LAGVTQTPRYLIKTRGQQVTLSCSPISGHRSVSWYQQTPGQGLQFLFEYFSETQRNKGNFPGRFSGRQFSNSRSEMNVSTLELGDSALYLCASSLGWRETYNEQFFGPGTRLTVL
B6: recognises [10].

B7: Clone T243 (T243 TCRα with TAK1β) (TCR, V domains shown)
Valpha: EDKVVQSPLSLVVHEGDTVTLNCSYEVTNFRSLLWYKQEKKAPTFLFMLTSSGIEKKSGRLSSILDKKELFSILNITATQTGDSAVYLCAVLTQTGANNLFFGTGTRLTVIP
Vbeta: LAGVTQTPRYLIKTRGQQVTLSCSPISGHRSVSWYQQTPGQGLQFLFEYFSETQRNKGNFPGRFSGRQFSNSRSEMNVSTLELGDSALYLCASSLGWRETYNEQFFGPGTRLTVL
B7: recognises [10].
